Tests used:
[1] = target: T1, Fc-tagged SARS-CoV-2 S2 subunit (SARS-CoV-2; human, UniProt P0DTC2 686-1213); assay: CDS imaging on HEK293T cells expressing L-SIGN, anti-human Fc detection
T1 construct: domain: S2

[2] = target: T1, Fc-tagged SARS-CoV-2 S2 subunit; assay: CDS imaging on HEK293T cells expressing LSECtin, anti-human Fc detection
[3] = target: Human IgG1 Fc-tagged SARS-CoV-2 Spike (S) recombinant protein (SARS-CoV-2; human, UniProt P0DTC2 16-1213); assay: Fc-tagged protein on receptor-transfected HEK293T cells, CDS imaging
[4] = target: SARS-CoV-2 S protein displayed on lentiviral (HIV-GFP) pseudovirus (SARS-CoV-2, UniProt P0DTC2 14-1273); assay: pseudovirus on transfected HEK293T cells on ice, anti-S staining, flow cytometry
[5] = target: T2, Fc-tagged SARS-CoV-2 S N-terminal domain (SARS-CoV-2; human, UniProt P0DTC2 14-305); assay: Fc-tagged S domain on receptor-transfected HEK293T cells, CDS imaging
T2 construct: domain: NTD

[6] = target: Recombinant SARS-CoV-2-S1 protein with His tag (SARS-CoV-2, UniProt P0DTC2 16-685)
[7] = target: T3, Human IgG1 Fc-tagged SARS-CoV-2 S receptor-binding domain (SARS-CoV-2; human, UniProt P0DTC2 319-541); assay: Fc-tagged protein on receptor-expressing HEK293T cells (FIG. 13B)
T3 construct: domain: RBD

[8] = target: T1, Fc-tagged SARS-CoV-2 S2 subunit; assay: CDS imaging on HEK293T cells expressing DC-SIGN, anti-human Fc detection

B1: Liver/lymph node-specific intercellular adhesion molecule-3-grabbing integrin expressed on cells (receptor)
chain: MSDSKEPRVQQLGLLEEDPTTSGIRLFPRDFQFQQIHGHKSSTGCLGHGALVLQLLSFMLLAGVLVAILVQVSKVPSSLSQEQSEQDAIYQNLTQLKAAVGELSEKSKLQEIYQELTQLKAAVGELPEKSKLQEIYQELTRLKAAVGELPEKSKLQEIYQELTRLKAAVGELPEKSKLQEIYQELTRLKAAVGELPEKSKLQEIYQELTELKAAVGELPEKSKLQEIYQELTQLKAAVGELPDQSKQQQIYQELTDLKTAFERLCRHCPKDWTFFQGNCYFMSNSQRNWHDSVTACQEVRAQLVVIKTAEEQNFLQLQTSRSNRFSWMGLSDLNQEGTWQWVDGSPLSPSFQRYWNSGEPNNSGNEDCAEFSGSGWNDNRCDVDNYWICKKPAACFRDE
notes: whole, on cells; also called L-SIGN; CLEC4M
binding result [1]: binds

B2: Liver and lymph node sinusoidal endothelial cell C-type lectin expressed on cells (receptor)
chain: MDTTRYSKWGGSSEEVPGGPWGRWVHWSRRPLFLALAVLVTTVLWAVILSILLSKASTERAALLDGHDLLRTNASKQTAALGALKEEVGDCHSCCSGTQAQLQTTRAELGEAQAKLMEQESALRELRERVTQGLAEAGRGREDVRTELFRALEAVRLQNNSCEPCPTSWLSFEGSCYFFSVPKTTWAAAQDHCADASAHLVIVGGLDEQGFLTRNTRGRGYWLGLRAVRHLGKVQGYQWVDGVSLSFSHWNQGEPNDAWGRENCVMMLHTGLWNDAPCDSEKDGWICEKRHNC
notes: whole, on cells; also called LSECtin; CLEC4G
binding result [2]: binds

B3: C-type lectin domain family 10 member A expressed on cells (receptor)
chain: MTRTYENFQYLENKVKVQGFKNGPLPLQSLLQRLCSGPCHLLLSLGLGLLLLVIICVVGFQNSKFQRDLVTLRTDFSNFTSNTVAEIQALTSQGSSLEETIASLKAEVEGFKQERQAGVSELQEHTTQKAHLGHCPHCPSVCVPVHSEMLLRVQQLVQDLKKLTCQVATLNNNASTEGTCCPVNWVEHQDSCYWFSHSGMSWAEAEKYCQLKNAHLVVINSREEQNFVQKYLGSAYTWMGLSDPEGAWKWVDGTDYATGFQNWKPGQPDDWQGHGLGGGEDCAHFHPDGRWNDDVCQRPYHWVCEAGLGQTSQESH
notes: whole, on cells; also called CLEC10A
binding result [3]: binds | binding result [4]: binds

B4: Asialoglycoprotein Receptor 1 expressed on cells (receptor)
chain: MTKEYQDLQHLDNEESDHHQLRKGPPPPQPLLQRLCSGPRLLLLSLGLSLLLLVVVCVIGSQNSQLQEELRGLRETFSNFTASTEAQVKGLSTQGGNVGRKMKSLESQLEKQQKDLSEDHSSLLLHVKQFVSDLRSLSCQMAALQGNGSERTCCPVNWVEHERSCYWFSRSGKAWADADNYCRLEDAHLVVVTSWEEQKFVQHHIGPVNTWMGLHDQNGPWKWVDGTDYETGFKNWRPEQPDDWYGHGLGGGEDCAHFTDDGRWNDDVCQRPYRWVCETELDKASQEPPLL
notes: whole, on cells; also called ASGR1
binding result [3]: binds | binding result [5]: binds | binding result [4]: binds

B5: Recombinant DC-SIGN (CD209) with human Fc tag (Fc fusion)
chain: QVSKVPSSISQEQSRQDAIYQNLTQLKAAVGELSEKSKLQEIYQELTQLKAAVGELPEKSKLQEIYQELTRLKAAVGELPEKSKLQEIYQELTWLKAAVGELPEKSKMQEIYQELTRLKAAVGELPEKSKQQEIYQELTRLKAAVGELPEKSKQQEIYQELTRLKAAVGELPEKSKQQEIYQELTQLKAAVERLCHPCPWEWTFFQGNCYFMSNSQRNWHDSITACKEVGAQLVVIKSAEEQNFLQLQSSRSNRFTWMGLSDLNQEGTWQWVDGSPLLPSFKQYWNRGEPNNVGEEDCAEFSGNGWNDDKCNLAKFWICKKSAASCSRDEEQFLSPAPATPNPPPA
EC50 (read off the curve) [6]: ~0.8 µg/mL

B6: Tweety Family Member 2 expressed on cells (receptor)
chain: MQAARVDYIAPWWVVWLHSVPHVGLRLQPVNSTFSPGDESYQESLLFLGLVAAVCLGLNLIFLVAYLVCACHCRRDDAVQTKQHHSCCITWTAVVAGLICCAAVGVGFYGNSETNDGAYQLMYSLDDANHTFSGIDALVSGTTQKMKVDLEQHLARLSEIFAARGDYLQTLKFIQQMAGSVVVQLSGLPVWREVTMELTKLSDQTGYVEYYRWLSYLLLFILDLVICLIACLGLAKRSKCLLASMLCCGALSLLLSWASLAADGSAAVATSDFCVAPDTFILNVTEGQISTEVTRYYLYCSQSGSSPFQQTLTTFQRALTTMQIQVAGLLQFAVPLFSTAEEDLLAIQLLLNSSESSLHQLTAMVDCRGLHKDYLDALAGICYDGLQGLLYLGLFSFLAALAFSTMICAGPRAWKHFTTRNRDYDDIDDDDPFNPQAWRMAAHSPPRGQLHSFCSYSSGLGSQTSLQPPAQTISNAPVSEYMNQAMLFGRNPRYENVPLIGRASPPPTYSPSMRATYLSVADEHLRHYGNQFPA
notes: whole, on cells; also called TTYH2; TTHY2
binding result [7]: binds

B7: Dendritic cell-specific intercellular adhesion molecule-3-grabbing nonintegrin expressed on cells (receptor)
chain: MSDSKEPRLQQLGLLEEEQLRGLGFRQTRGYKSLAGCLGHGPLVLQLLSFTLLAGLLVQVSKVPSSISQEQSRQDAIYQNLTQLKAAVGELSEKSKLQEIYQELTQLKAAVGELPEKSKLQEIYQELTRLKAAVGELPEKSKLQEIYQELTWLKAAVGELPEKSKMQEIYQELTRLKAAVGELPEKSKQQEIYQELTRLKAAVGELPEKSKQQEIYQELTRLKAAVGELPEKSKQQEIYQELTQLKAAVERLCHPCPWEWTFFQGNCYFMSNSQRNWHDSITACKEVGAQLVVIKSAEEQNFLQLQSSRSNRFTWMGLSDLNQEGTWQWVDGSPLLPSFKQYWNRGEPNNVGEEDCAEFSGNGWNDDKCNLAKFWICKKSAASCSRDEEQFLSPAPATPNPPPA
notes: whole, on cells; also called DC-SIGN; CD209
binding result [8]: binds

— US20220089695A1 (NEW YORK UNIVERSITY, published 2022)
